Laboratory results reported in US12116424.

Target: L. monocytogenes AgrC (Listeria monocytogenes (EGD-e))
Experiment: cell-based or functional assay

Row | Substance | EC50 (agr-GFP reporter, ΔagrD strain) [nM] | Max Activation Observed (agr-GFP reporter, ΔagrD strain) [%] | Max Inhibition Observed (agr-GFP reporter, wild-type strain) [%] | Max Activation (agr-GFP reporter, ΔagrD strain) [%] | Max Inhibition (agr-GFP reporter, wild-type strain) [%] | IC50 (agr-GFP reporter, wild-type strain) [nM]
1 | AIP A1dA (peptide) | 96.9 | 58.8 | 15.2 | – | – | –
2 | AIP M4dM (peptide) | 10.2 | 111 | 3.99 | – | – | –
3 | AIP F3A (peptide) | – | 9.72 | 3.65 | – | – | –
4 | AIP F3dF (peptide) | – | 6.63 | 14.7 | – | – | –
5 | AIP F5A (peptide) | – | 6.37 | – | – | – | –
6 | L. grandensis tr AIP (peptide) | – | – | – | 10.1 | 0 | –
7 | L. grayi AIP (peptide) | – | – | – | 10.7 | 0.42 | –
8 | L. weihenstephanensis AIP (peptide) | – | – | – | 11.2 | 0 | –
9 | L. kieliensis AIP (peptide) | – | – | – | 10.4 | 0 | –
10 | AIP V6A (peptide) | 241 | 69 | 15 | 69 | 15 | –
11 | AIP C2dC (peptide) | 106 | 41 | 48.4 | – | – | 3970
12 | Lm AIP F3S (peptide) | – | – | – | 16.1 | 16.3 | –
13 | L. newyorkensis AIP (peptide) | – | – | – | 23.6 | 0.96 | –
14 | AIP F5dF (peptide) | 2180 | 72.3 | 2.71 | – | – | –
15 | AIP M4A (peptide) | 1980 | 53.5 | 7.85 | – | – | –
16 | AIP V6dV (peptide) | 883 | 72.9 | – | – | – | –
17 | L. monocytogenes AIP, A-(C-F-M-F-V) (peptide) | 29.6 | – | – | 114 | 2.66 | –

Target: L. monocytogenes AgrC (Listeria monocytogenes (EGD-e))
Experiment: cell-based or functional assay
Remark: another data set of the same source

Row | Substance | EC50 (agr-GFP reporter, ΔagrD strain) [nM] | Max Activation Observed (agr-GFP reporter, ΔagrD strain) [%] | Max Inhibition Observed (agr-GFP reporter, wild-type strain) [%] | IC50 (agr-GFP reporter, wild-type strain) [nM]
18 | AIP F5Y (peptide) | 5620 | 44.4 | 6.61 | –
19 | AIP F3Y (peptide) | 518 | 47.4 | 33.4 | 3460
20 | AIP A1K/C2dC/M4dM (peptide) | – | 8.1 | 88.6 | 1770
21 | AIP C2dDap (peptide) | – | 14.3 | 19.3 | –
22 | AIP F3L (peptide) | 693 | 37.6 | 33.4 | 3600
23 | AIP A1P (peptide) | 29 | 76.8 | 23.7 | 611
24 | AIP C2Dap (peptide) | 342 | 92.9 | 5.32 | –
25 | AIP F3W (peptide) | 414 | 60.6 | 27.1 | 2180
26 | AIP A1T (peptide) | 35.2 | 88.1 | 11.7 | 420
27 | AIP F5W (peptide) | 1130 | 85.8 | 8.43 | –
28 | AIP A1K/M4dM (peptide) | 4.18 | 74.1 | 20.2 | –
29 | AIP A1V (peptide) | 7.67 | 109 | 1.63 | –
30 | AIP C2dC/M4dM (peptide) | 24.1 | 35.7 | 64.8 | 242
31 | AIP M4dA (peptide) | 455 | 82 | 9.54 | –
32 | AIP F5L (peptide) | 2060 | 64.8 | 8.97 | –
33 | AIP F3H (peptide) | – | 12.4 | 24.9 | –
34 | AIP F5H (peptide) | – | 7.13 | 2.19 | –
35 | L. monocytogenes AIP, A-(C-F-M-F-V) (peptide) | 29.7 | 114 | – | –
